Results: patent publication US7479478B2, “Human parathyroid hormone modifications, preparation and use” (The General Hospital Corporation, priority 1998, dated 2009)
No end group written: not given here.

Columns and labels:
human PTH-1 receptors [1] = target: T1, human PTH-1 receptors (Homo sapiens, UniProt Q03431); assay: AC activation in cells that express fewer human PTH-1 receptors (LLC-PK1 subclones, SaOS-2); type: cell-based; conditions: LLC-PKI or SaOS-2 osteosarcoma cells, 10,000-100,000 receptors per cell; data not shown
T1 construct: expressed in transfected cells
T1 sequence (Q03431 27-593): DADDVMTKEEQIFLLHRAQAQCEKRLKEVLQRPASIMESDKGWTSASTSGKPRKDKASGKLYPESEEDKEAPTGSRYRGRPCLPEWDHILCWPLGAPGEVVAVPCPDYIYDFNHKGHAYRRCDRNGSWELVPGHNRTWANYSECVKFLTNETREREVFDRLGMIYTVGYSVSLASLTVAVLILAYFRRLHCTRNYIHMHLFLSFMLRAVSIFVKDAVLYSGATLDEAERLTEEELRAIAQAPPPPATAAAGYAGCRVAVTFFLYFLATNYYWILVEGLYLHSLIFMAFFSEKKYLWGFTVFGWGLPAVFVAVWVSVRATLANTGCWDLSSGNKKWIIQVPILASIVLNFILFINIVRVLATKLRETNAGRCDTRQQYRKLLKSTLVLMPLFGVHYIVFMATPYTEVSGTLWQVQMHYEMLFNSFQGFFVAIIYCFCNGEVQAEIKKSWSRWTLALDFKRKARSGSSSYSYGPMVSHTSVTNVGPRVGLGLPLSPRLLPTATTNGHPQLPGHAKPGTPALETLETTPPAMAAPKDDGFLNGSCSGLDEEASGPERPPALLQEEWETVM
Experimental: Intracellular cAMP accumulation, PLC activation and PTHR binding affinity were measured as previously reported (Bringhurst, F. R., et al., Endocrinology 132(5):2090-2098 (1993); Guo, J., et al., Endocrinology 136(9):3884-3891 (1995)). Intracellular cAMP accumulation was measured in extracts of cells that were exposed to human PTH peptides in the presence of isobutylmethyxanthine (IBMX, 1 mM) at 37° C. for 15 min. After terminating the reactions by aspiration and freezing in liquid nitrogen, cell monolayers were extracted with 50 mM HCl and cAMP was measured using a radioimmunoassay kit (Dupont-New England Nuclear, Boston, Mass.).
The possibility that the [Gly^1,Arg^19]hPTH-(1-28) peptide might be useful, especially in rodent models, as a signal-selective analog to dissociate AC from PLC signaling via the PTH-1 receptor was examined further using the EW5 subclone of LLC-PK1 cells that stably expresses rat PTH-1 receptors (Guo, J., et al., Endocrinology 136(9):3884-3891 (1995)). […]

human PTH-1 receptors [2] = target: T1, human PTH-1 receptors; assay: PLC activation (total inositol polyphosphates) in transiently transfected HEK-293 cells; type: cell-based; conditions: 1000 nM peptide, mean ± SEM
Experimental: HKRK B7 or EW5 cells (32), subclones of LLC-PKI renal epithelial cells that stably express human or rat PTH-1 receptors (950,000 and 320,000 receptors/cell, respectively), were maintained under 5% CO2 in air in Dulbecco's modified essential medium containing 7% fetal bovine serum (FBS) and 1% penicillin/streptomycin (GIBCO-BRL, Grand Island, N.Y.). HEK-293 and COS-7 cells were cultured similarly, except that 10% FBS was used in the medium. Cells were seeded into 24-well plates two days before assay at a density of 2-2.5×10^5 cells/well (HKRK B7 or EW 5 cells) or 6×10^5 cells/well (in 6-well plates) (HEK-293 cells). In experiments involving HEK-293 cells, DNA transfections were performed 24 hr after plating and inositol radiolabel was added 24 hr thereafter (see below). COS-7 cell transfections were performed as previously described (Gardella, T. J., et al., Endocrinology 132(5):2024-2030 (1993))
PLC was activated by PTH agonists in the presence of 30 mM LiCl at 37° C. for 30 min after 16 hr of labeling with [^3H]myo-inositol (3 uCi/ml) in serum-free medium containing 0.1% bovine serum albumin. […]
Total inositol polyphosphate produced in response to 1000 nM of the peptides shown were measured in HEK-293 cells that transiently expressed human PTH-1 receptors. Results are expressed as means±SEMs of the % of basal activity for triplicate determinations.

Substance | fold reduction of AC activation relative to hPTH-(1-34) (human PTH-1 receptors [1]) | PLC Activity (% Basal) (human PTH-1 receptors [2])
GVSEIQLMHNLGKHLNSMRRVEWLRKKL [[Gly^1,Arg^19]hPTH-(1-28)] | 10-20 fold | –
SVSEIQLMHNLGKHLNSMERVEWLRKKL-NH2 [hPTH-(1-28)] | – | 305 ± 20
